Laboratory results published in article PMC8103094, “Androgen receptor (AR) antagonism triggers acute succinate‐mediated adaptive responses to reactivate AR signaling”.

Target: Androgen receptor DNA-binding domain (AR-DBD) (UniProt P10275 560-632)
Test: EMSA; Odyssey infrared EMSA kit (LI-COR): 2.5 mM DTT/0.25% Tween 20, poly(dI.dC), room temperature 30 min, increasing protein; 6% TBE native gel; salt and pH not stated
Details: protein: recombinant; chain copies: 2; label: 5' IRDye700 on both strands; blunt

Chain of Androgen receptor DNA-binding domain (AR-DBD) (P10275 560-632): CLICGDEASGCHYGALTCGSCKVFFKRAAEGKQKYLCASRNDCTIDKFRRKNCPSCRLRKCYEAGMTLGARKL

Binder	binding result
SDHB ARE probe (dsDNA) DNA 1: AGAGCTCCCTGTACTTTCCCAACA DNA 2: TGTTGGGAAAGTACAGGGAGCTCT	binds
SDHA ARE probe (dsDNA) DNA 1: GCGACTTGTGCTGGCTGAGGGA DNA 2: TCCCTCAGCCAGCACAAGTCGC	binds
